From patent publication US20190383824A1 (OREGON HEALTH AND SCIENCE UNIVERSITY, published 2019)

T1: CoilZ-EGFP-TM
T1 construct: CoilZ fused to the N-terminus of EGFP in pDisplay; also called CoilZ-GFP; CoilZ-EGFP-pDisplay
T1 chain: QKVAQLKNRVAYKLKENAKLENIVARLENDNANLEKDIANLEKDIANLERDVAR

T2: CoilE-DHFR
T2 construct: Lysate and purified protein resolved by SDS-PAGE and blotted on PVDF
T2 chain: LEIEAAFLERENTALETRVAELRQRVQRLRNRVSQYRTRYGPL

T3: CoilY-EGFP-TM
T3 construct: also called CoilY-GFP
T3 chain: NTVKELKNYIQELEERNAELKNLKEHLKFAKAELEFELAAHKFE

T4: CoilY-mCherry-TM
T4 construct: CoilY fused to the N-terminus of a membrane-targeted mCherry construct; on cells or in HEK293FT lysates; also called CoilY-mCherry-pDisplay
T4 chain: T3 chain

T5: H2B-6-CoilE-mEmerald
T5 construct: Expressed in U-2 OS cells; labelled after fixation and permeabilisation; also called mEmerald-CoilE-H2B; not shown: histone H2B (H2B-6 construct); mEmerald, engineered green fluorescent protein
T5 chain: T2 chain

T6: Mito-7-CoilE-mEmerald
T6 construct: Expressed in U-2 OS cells; labelled after fixation and permeabilisation; also called mEmerald-CoilE-mito; not shown: mEmerald, engineered green fluorescent protein
T6 chain: T2 chain

T7: mEmerald-CoilE-Actin-C18
T7 construct: Expressed in U-2 OS cells; labelled after fixation and permeabilisation; also called CoilE-tagged actin; not shown: mEmerald, engineered green fluorescent protein; actin (Actin-C18 construct)
T7 chain: T2 chain

B1: CoilZ probe peptide (peptide)
peptide: MGSSQKVAQLKNRVAYKLKENAKLENIVARLENDNANLEKDIANLEKDIANLERDVARGGGAAACLGKLAAALEHHHHHH
modifications: reporter named in each row (AF647, fluorescein or biotin) conjugated to the reactive cysteine by maleimide chemistry; label state not stated for the biophysical characterisation
notes: Recombinant from E. coli, with linker, reactive cysteine and His6 tag; All differently labelled CoilZ probes are kept as one molecule; also called Coil6; Zip6
B2: CoilR probe peptide (peptide)
peptide: MGGSLEIRAAFLRQRNTALRTEVAELEQEVQRLENEVSQYETRYGPLGGGAAALGCLAAALEHHHHHH
modifications: not fully specified
notes: also called CoilR-Cy5; CoilR-biotin
B3: CoilY probe peptide (peptide)
peptide: MGSSNTVKELKNYIQELEERNAELKNLKEHLKFAKAELEFELAAHKFEGGGAAACLGKLAAALEHHHHHH
modifications: also: label (AF647, rhodamine or biotin) on Cys55 by maleimide, varies between preparations
notes: Recombinant from E. coli, with linker, reactive cysteine and His6 tag; All differently labelled CoilY probes are kept as one molecule; also called Coil5; Zip5

How the values were obtained:
CoilZ-EGFP-TM [1] = target: T1, CoilZ-EGFP-TM; assay: two-target imaging of cells, confocal microscopy, streptavidin-Qdot565 detection
CoilE-DHFR = target: T2, CoilE-DHFR; assay: fluorescent blot on PVDF after SDS-PAGE
CoilY probe peptide = target: B3; assay: purified peptides; interferometry is named among the characterisation methods
CoilY-EGFP-TM [2] = target: T3, CoilY-EGFP-TM; assay: flow cytometry, live U-2 OS cells, 500 nM probe
Protocol: (§1) Cells were treated with 500 nM AF647-conjugated probe peptide before analysis, and we gated for EGFP-expressing cells.

untagged TfR1 = target: T8, untagged TfR1 (UniProt P02786 1-760, limits assumed); assay: CLEM of CHO TRVb cells, CoilR-biotin detected by streptavidin-QD655
T8 construct: whole, on cells; Expressed in CHO TRVb cells; control without a coil tag; also called transferrin receptor 1; TfR1-TRVb
T8 sequence (P02786 whole entry): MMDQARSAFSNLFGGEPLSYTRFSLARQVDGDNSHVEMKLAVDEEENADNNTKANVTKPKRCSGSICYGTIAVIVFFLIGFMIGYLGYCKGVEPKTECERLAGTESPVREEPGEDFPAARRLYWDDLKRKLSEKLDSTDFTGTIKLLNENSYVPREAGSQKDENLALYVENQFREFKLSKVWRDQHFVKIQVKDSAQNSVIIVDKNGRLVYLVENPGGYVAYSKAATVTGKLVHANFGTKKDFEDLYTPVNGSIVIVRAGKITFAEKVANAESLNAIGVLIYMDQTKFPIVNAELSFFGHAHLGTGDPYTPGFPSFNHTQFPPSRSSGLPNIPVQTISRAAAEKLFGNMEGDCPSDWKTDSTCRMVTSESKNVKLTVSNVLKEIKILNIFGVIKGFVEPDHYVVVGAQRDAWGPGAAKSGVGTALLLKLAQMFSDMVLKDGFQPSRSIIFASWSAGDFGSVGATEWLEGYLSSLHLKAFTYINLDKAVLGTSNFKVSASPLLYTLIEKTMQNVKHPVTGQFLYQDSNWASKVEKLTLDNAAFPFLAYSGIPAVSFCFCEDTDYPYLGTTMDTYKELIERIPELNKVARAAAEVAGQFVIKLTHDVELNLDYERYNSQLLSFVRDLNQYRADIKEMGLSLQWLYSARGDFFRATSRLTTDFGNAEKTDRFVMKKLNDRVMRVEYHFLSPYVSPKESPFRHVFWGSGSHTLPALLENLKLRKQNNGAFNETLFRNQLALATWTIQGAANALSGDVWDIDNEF
Excerpt: VIP E/R was used for CLEM imaging of TfR1 receptor (FIG. 7). […] This enabled individual cells' locations to be registered relative to the slide so that they may be reimaged again via SEM. After fluorescent cells were mapped, the coverslips were processed for EM imaging.

CoilY-mCherry-TM [3] = target: T4, CoilY-mCherry-TM; assay: fluorescent blot on PVDF after SDS-PAGE
H2B-6-CoilE-mEmerald = target: T5, H2B-6-CoilE-mEmerald; assay: colocalisation analysis of micrographs, fixed U-2 OS cells
Protocol: (§2) U-2 OS cells were transfected with mEmerald-actin-C18, mEmerald-CoilE-actin-C18, H2B-6-mEmerald, H2B-6-CoilE-mEmerald, Mito-7-mEmerald, and Mito-7-CoilE-mEmerald and fixed with 4% PFA 24 hours after transfection. […] Cells were fixed and imaged using with line-scanning confocal microscope.
(§3) The cells labeled as in FIG. 15 at low magnification to capture multiple cells.

Mito-7-CoilE-mEmerald = target: T6, Mito-7-CoilE-mEmerald; assay: as above
Protocol: as §2, §3

mEmerald-CoilE-Actin-C18 = target: T7, mEmerald-CoilE-Actin-C18; assay: as above
Protocol: as §2, §3

CoilZ-EGFP-TM [4] = target: T1, CoilZ-EGFP-TM; assay: flow cytometry, live cells, 300 nM probe
CoilZ-EGFP-TM [5] = target: T1, CoilZ-EGFP-TM; assay: flow cytometry, live U-2 OS cells, 500 nM probe
Protocol: as §1

CoilY-mCherry-TM [6] = target: T4, CoilY-mCherry-TM; assay: two-target imaging of cells, confocal microscopy
CoilY-EGFP-TM [7] = target: T3, CoilY-EGFP-TM; assay: flow cytometry, live U-2 OS cells
Protocol: as §1

B1
binding result (CoilZ-EGFP-TM [1]): no binding (tested: 500 nM)
binding result (CoilE-DHFR): no binding
Kd (CoilY probe peptide): 3.6 nM
fold enhancement of AF647 fluorescence (CoilY-EGFP-TM [2]): 4 fold

B2
binding result (untagged TfR1): no binding (tested: 100 nM)
binding result (CoilY-mCherry-TM [3]): no binding
Pearson's correlation between the mEmerald signal and CoilR-Cy5 (H2B-6-CoilE-mEmerald): 0.9
Pearson's correlation between the mEmerald signal and CoilR-Cy5 (Mito-7-CoilE-mEmerald): 0.89
Pearson's correlation between the mEmerald signal and CoilR-Cy5 (mEmerald-CoilE-Actin-C18): 0.97

B3
fold increase in AF647 fluorescence (CoilZ-EGFP-TM [4]): 35 fold
fold enhancement of AF647 fluorescence (CoilZ-EGFP-TM [5]): > 40 fold
binding result (CoilY-mCherry-TM [6]): no binding (tested: 500 nM)
binding result (CoilY-EGFP-TM [7]): no binding (tested: 500 nM)
